Reference: the supplement of paper PMC9112550, “Optimization of the antimicrobial peptide Bac7 by deep mutational scanning” (BMC Biology, 2022)

System: Escherichia coli TOP10
Test: shrunken log2 fold change of peptide-encoding DNA abundance (4.5 h post-induction vs induction); higher = less antimicrobial activity (less host growth inhibition)
Settings: time post-induction: 4.5 h; library: site-saturation at positions 5, 18, 19, 20
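Note: peptides expressed intracellularly from a pBAD plasmid library in pooled LB shake-flask culture, induced with 0.3% L-arabinose, DNA abundance read by NGS, three biological replicates, DESeq2 with apeglm shrinkage.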

Sequence | shrunken log2 fold change
RRIRARPPRLPRPRPRPPSKPRP | 0.491
RRIRARPPRLPRPRPRPPTHPRP | 0.398
RRIRARPPRLPRPRPRPPTQPRP | 0.718
RRIRARPPRLPRPRPRPPVRPRP | 0.609
RRIRARPPRLPRPRPRPPWCPRP | 0.373
RRIRARPPRLPRPRPRPPYEPRP | 0.194
RRIRARPPRLPRPRPRPPYLPRP | -0.188
RRIRARPPRLPRPRPRPQACPRP | 0.0559
RRIRARPPRLPRPRPRPQCCPRP | 0.219
RRIRARPPRLPRPRPRPQDTPRP | -0.179
RRIRARPPRLPRPRPRPQERPRP | 0.0703
RRIRARPPRLPRPRPRPQESPRP | 0.0266
RRIRARPPRLPRPRPRPQFVPRP | -0.0892
RRIRARPPRLPRPRPRPQGQPRP | -0.2
RRIRARPPRLPRPRPRPQGVPRP | -0.128
RRIRARPPRLPRPRPRPQHCPRP | 0.138
RRIRARPPRLPRPRPRPQHIPRP | -0.0675
RRIRARPPRLPRPRPRPQHQPRP | 0.698
RRIRARPPRLPRPRPRPQHTPRP | 0.156
RRIRARPPRLPRPRPRPQHVPRP | 0.0233
RRIRARPPRLPRPRPRPQIFPRP | -0.0149
RRIRARPPRLPRPRPRPQIMPRP | 0.0849
RRIRARPPRLPRPRPRPQIVPRP | -0.0292
RRIRARPPRLPRPRPRPQKGPRP | 0.0244
RRIRARPPRLPRPRPRPQLRPRP | 0.157

Sequence | shrunken log2 fold change
RRIRARPPRLPRPRPRPQMRPRP | 0.62
RRIRARPPRLPRPRPRPQNQPRP | -0.141
RRIRARPPRLPRPRPRPQPHPRP | 0.347
RRIRARPPRLPRPRPRPQQPPRP | 0.0738
RRIRARPPRLPRPRPRPQRAPRP | 1.26
RRIRARPPRLPRPRPRPQRLPRP | 0.247
RRIRARPPRLPRPRPRPQSWPRP | 0.322
RRIRARPPRLPRPRPRPQTIPRP | -0.196
RRIRARPPRLPRPRPRPQVEPRP | 0.399
RRIRARPPRLPRPRPRPQVSPRP | -0.156
RRIRARPPRLPRPRPRPQWPPRP | 0.366
RRIRARPPRLPRPRPRPQYPPRP | -0.414
RRIRARPPRLPRPRPRPQYVPRP | -0.116
RRIRARPPRLPRPRPRPRACPRP | 0.447
RRIRARPPRLPRPRPRPRAHPRP | 0.256
RRIRARPPRLPRPRPRPRALPRP | 0.482
RRIRARPPRLPRPRPRPRANPRP | 0.694
RRIRARPPRLPRPRPRPREMPRP | 0.563
RRIRARPPRLPRPRPRPRGDPRP | 3.26
RRIRARPPRLPRPRPRPRHNPRP | -0.0548
RRIRARPPRLPRPRPRPRHRPRP | 0.412
RRIRARPPRLPRPRPRPRINPRP | 0.105
RRIRARPPRLPRPRPRPRKWPRP | 1.28
RRIRARPPRLPRPRPRPRLPPRP | 0.667
RRIRARPPRLPRPRPRPRLTPRP | 1.58

Sequence | shrunken log2 fold change
RRIRARPPRLPRPRPRPRLWPRP | 0.724
RRIRARPPRLPRPRPRPRMMPRP | 0.229
RRIRARPPRLPRPRPRPRMWPRP | 0.164
RRIRARPPRLPRPRPRPRNDPRP | 0.0481
RRIRARPPRLPRPRPRPRPAPRP | 0.76
RRIRARPPRLPRPRPRPRPGPRP | 0.814
RRIRARPPRLPRPRPRPRQEPRP | 0.503
RRIRARPPRLPRPRPRPRRIPRP | -0.0273
RRIRARPPRLPRPRPRPRRPPRP | 0.494
RRIRARPPRLPRPRPRPRSWPRP | 0.533
RRIRARPPRLPRPRPRPRWAPRP | 1.05
RRIRARPPRLPRPRPRPRYIPRP | -0.0261
RRIRARPPRLPRPRPRPSAVPRP | 0.282
RRIRARPPRLPRPRPRPSCAPRP | 0.689
RRIRARPPRLPRPRPRPSDSPRP | -0.197
RRIRARPPRLPRPRPRPSFIPRP | -0.177
RRIRARPPRLPRPRPRPSFMPRP | 0.0496
RRIRARPPRLPRPRPRPSFNPRP | -0.268
RRIRARPPRLPRPRPRPSFQPRP | -0.0185
RRIRARPPRLPRPRPRPSGAPRP | 0.38
RRIRARPPRLPRPRPRPSGDPRP | 0.15
RRIRARPPRLPRPRPRPSIQPRP | -0.119
RRIRARPPRLPRPRPRPSKGPRP | -0.133
RRIRARPPRLPRPRPRPSMEPRP | 0.146
RRIRARPPRLPRPRPRPSNQPRP | -0.0197

Sequence | shrunken log2 fold change
RRIRARPPRLPRPRPRPSPNPRP | 0.0681
RRIRARPPRLPRPRPRPSQCPRP | -0.121
RRIRARPPRLPRPRPRPSQEPRP | 0.0769
RRIRARPPRLPRPRPRPSQPPRP | -0.0248
RRIRARPPRLPRPRPRPSQQPRP | -0.0191
RRIRARPPRLPRPRPRPSRQPRP | 0.373
RRIRARPPRLPRPRPRPSRSPRP | 0.349
RRIRARPPRLPRPRPRPSSRPRP | -0.167
RRIRARPPRLPRPRPRPSTGPRP | -0.131
RRIRARPPRLPRPRPRPSVLPRP | -0.167
RRIRARPPRLPRPRPRPSVVPRP | -0.0244
RRIRARPPRLPRPRPRPSWGPRP | 0.0646
RRIRARPPRLPRPRPRPSYVPRP | -0.232
RRIRARPPRLPRPRPRPTAEPRP | 1.3
RRIRARPPRLPRPRPRPTEFPRP | 0.368
RRIRARPPRLPRPRPRPTGKPRP | 0.215
RRIRARPPRLPRPRPRPTGLPRP | 0.298
RRIRARPPRLPRPRPRPTHEPRP | 0.622
RRIRARPPRLPRPRPRPTHTPRP | 0.664
RRIRARPPRLPRPRPRPTHYPRP | 0.702
RRIRARPPRLPRPRPRPTIYPRP | 0.0113
RRIRARPPRLPRPRPRPTKPPRP | 0.24
RRIRARPPRLPRPRPRPTMAPRP | 0.6
RRIRARPPRLPRPRPRPTMFPRP | 0.121
RRIRARPPRLPRPRPRPTMSPRP | 0.159

Sequence | shrunken log2 fold change
RRIRARPPRLPRPRPRPTNKPRP | -0.0139
RRIRARPPRLPRPRPRPTNTPRP | 0.0887
RRIRARPPRLPRPRPRPTPKPRP | 0.956
RRIRARPPRLPRPRPRPTPLPRP | 0.601
RRIRARPPRLPRPRPRPTPPPRP | 0.811
RRIRARPPRLPRPRPRPTQGPRP | 0.905
RRIRARPPRLPRPRPRPTRNPRP | 0.657
RRIRARPPRLPRPRPRPTWGPRP | 0.625
RRIRARPPRLPRPRPRPTYSPRP | -0.204
RRIRARPPRLPRPRPRPVCLPRP | 0.138
RRIRARPPRLPRPRPRPVCPPRP | 0.139
RRIRARPPRLPRPRPRPVENPRP | 0.25
RRIRARPPRLPRPRPRPVEPPRP | 0.297
RRIRARPPRLPRPRPRPVERPRP | 0.732
RRIRARPPRLPRPRPRPVETPRP | 0.759
RRIRARPPRLPRPRPRPVFKPRP | 0.115
RRIRARPPRLPRPRPRPVFLPRP | 1.14
RRIRARPPRLPRPRPRPVFRPRP | 0.143
RRIRARPPRLPRPRPRPVHPPRP | 0.217
RRIRARPPRLPRPRPRPVITPRP | -0.021
RRIRARPPRLPRPRPRPVKGPRP | -0.00146
RRIRARPPRLPRPRPRPVKPPRP | 0.236
RRIRARPPRLPRPRPRPVKSPRP | 0.19
RRIRARPPRLPRPRPRPVLDPRP | 0.185
RRIRARPPRLPRPRPRPVLKPRP | 0.22

Sequence | shrunken log2 fold change
RRIRARPPRLPRPRPRPVLMPRP | 0.199
RRIRARPPRLPRPRPRPVMGPRP | 0.177
RRIRARPPRLPRPRPRPVMNPRP | -0.0562
RRIRARPPRLPRPRPRPVPEPRP | 0.499
RRIRARPPRLPRPRPRPVPGPRP | 0.672
RRIRARPPRLPRPRPRPVPTPRP | 0.57
RRIRARPPRLPRPRPRPVQHPRP | 0.555
RRIRARPPRLPRPRPRPVQLPRP | 0.101
RRIRARPPRLPRPRPRPVRYPRP | 2.39
RRIRARPPRLPRPRPRPVSMPRP | 0.229
RRIRARPPRLPRPRPRPVTGPRP | 0.301
RRIRARPPRLPRPRPRPVTMPRP | 0.102
RRIRARPPRLPRPRPRPVVQPRP | 0.511
RRIRARPPRLPRPRPRPVWGPRP | 0.383
RRIRARPPRLPRPRPRPVWKPRP | 0.125
RRIRARPPRLPRPRPRPVWVPRP | 0.321
RRIRARPPRLPRPRPRPWAAPRP | 0.239
RRIRARPPRLPRPRPRPWAMPRP | 0.0453
RRIRARPPRLPRPRPRPWANPRP | 0.201
RRIRARPPRLPRPRPRPWCCPRP | 0.104
RRIRARPPRLPRPRPRPWCYPRP | -0.306
RRIRARPPRLPRPRPRPWFQPRP | 0.0762
RRIRARPPRLPRPRPRPWFSPRP | -0.00399
RRIRARPPRLPRPRPRPWFTPRP | -0.316
RRIRARPPRLPRPRPRPWGMPRP | -0.00469
